Reference: article PMC2734569, “Functional mapping of the fission yeast DNA polymerase δ B-subunit Cdc1 by site-directed and random pentapeptide insertion mutagenesis” (BMC Molecular Biology, 2009)
Changes are numbered by the printed parent chain.

What was measured:
Test in all cases: two-hybrid; LexA-Cdc1 bait (pBTM116 or pBTM116BN) with Gal4-Pol3 prey and co-expressed c-myc-tagged Cdc27 (pAA-Cdc27) in S. cerevisiae CTY10-5d; ONPG liquid culture beta-galactosidase assay, mean of triplicates, as percent of wild-type Cdc1
Details in all cases: partners not purified
[1] = biological target: T1, Cdc1-J22 (Schizosaccharomyces pombe, UniProt P87324 1-462, Arg-GlyValProLeuArg-Gly)
T1 construct: Cdc1, S. pombe, with a pentapeptide inserted after residue 212; source: yeast two-hybrid fusion, in S. cerevisiae CTY10-5d
T1 sequence (looked up): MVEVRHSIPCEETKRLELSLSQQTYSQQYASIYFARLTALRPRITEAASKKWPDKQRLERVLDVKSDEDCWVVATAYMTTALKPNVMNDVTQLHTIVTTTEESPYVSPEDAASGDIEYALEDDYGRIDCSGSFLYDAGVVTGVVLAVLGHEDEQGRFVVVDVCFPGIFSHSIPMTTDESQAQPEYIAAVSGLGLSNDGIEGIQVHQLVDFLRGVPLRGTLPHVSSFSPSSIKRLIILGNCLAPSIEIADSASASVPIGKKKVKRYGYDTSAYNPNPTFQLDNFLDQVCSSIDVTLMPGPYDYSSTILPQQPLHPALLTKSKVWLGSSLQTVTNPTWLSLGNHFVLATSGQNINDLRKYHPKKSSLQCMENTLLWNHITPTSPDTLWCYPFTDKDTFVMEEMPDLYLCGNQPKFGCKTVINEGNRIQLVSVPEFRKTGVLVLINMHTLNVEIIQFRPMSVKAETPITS

[2] = biological target: T2, Cdc1-A6 (Schizosaccharomyces pombe, UniProt P87324 1-462, Pro329Ala)
T2 construct: Cdc1, S. pombe, point mutant; source: yeast two-hybrid fusion, in S. cerevisiae CTY10-5d
T2 sequence (looked up): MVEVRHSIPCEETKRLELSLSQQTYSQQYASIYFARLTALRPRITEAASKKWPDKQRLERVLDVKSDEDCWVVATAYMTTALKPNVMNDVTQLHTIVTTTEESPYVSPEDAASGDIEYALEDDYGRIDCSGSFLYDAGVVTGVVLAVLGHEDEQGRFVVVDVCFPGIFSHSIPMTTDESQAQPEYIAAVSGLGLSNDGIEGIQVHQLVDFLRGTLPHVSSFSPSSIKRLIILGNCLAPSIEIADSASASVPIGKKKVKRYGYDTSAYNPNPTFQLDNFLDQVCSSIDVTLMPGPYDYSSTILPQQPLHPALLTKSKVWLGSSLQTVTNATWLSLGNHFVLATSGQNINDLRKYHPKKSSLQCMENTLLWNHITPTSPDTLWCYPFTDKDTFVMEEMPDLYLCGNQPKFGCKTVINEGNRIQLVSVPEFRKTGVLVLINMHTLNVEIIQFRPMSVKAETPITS

[3] = biological target: T3, Cdc1-J16 (Schizosaccharomyces pombe, UniProt P87324 1-462, Val-GlyGlyThrProVal-Asp)
T3 construct: Cdc1, S. pombe, with a pentapeptide inserted after residue 160; source: yeast two-hybrid fusion, in S. cerevisiae CTY10-5d
T3 sequence (looked up): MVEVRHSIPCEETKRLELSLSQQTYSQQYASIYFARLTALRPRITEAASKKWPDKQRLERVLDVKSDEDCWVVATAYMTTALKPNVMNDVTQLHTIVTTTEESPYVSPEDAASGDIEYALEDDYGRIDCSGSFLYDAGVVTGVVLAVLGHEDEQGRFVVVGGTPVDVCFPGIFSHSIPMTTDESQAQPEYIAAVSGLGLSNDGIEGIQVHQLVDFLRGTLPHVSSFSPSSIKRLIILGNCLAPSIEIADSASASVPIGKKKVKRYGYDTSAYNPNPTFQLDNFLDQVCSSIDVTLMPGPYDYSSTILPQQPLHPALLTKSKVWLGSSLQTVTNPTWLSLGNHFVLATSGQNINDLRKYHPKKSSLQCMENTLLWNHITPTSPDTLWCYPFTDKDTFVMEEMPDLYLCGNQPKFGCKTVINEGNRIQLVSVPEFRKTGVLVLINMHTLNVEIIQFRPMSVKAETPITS

[4] = biological target: T4, Cdc1-A1 (Schizosaccharomyces pombe, UniProt P87324 1-462, Pro292Ala)
T4 construct: Cdc1, S. pombe, point mutant; source: yeast two-hybrid fusion, in S. cerevisiae CTY10-5d
T4 sequence (looked up): T2 sequence (looked up) with P292A, A329P

two-hybrid beta-galactosidase activity, % of wild-type Cdc1 [1]: 25%
two-hybrid beta-galactosidase activity, % of wild-type Cdc1 [2]: < 1%
two-hybrid beta-galactosidase activity, % of wild-type Cdc1 [3]: < 1%
two-hybrid beta-galactosidase activity, % of wild-type Cdc1 [4]: 39%
B1: Pol3 (fission yeast DNA polymerase delta catalytic subunit) (natural protein, Schizosaccharomyces pombe, UniProt P30316 1-1086, looked up)
chain: MTDRSSNEGVVLNKENYPFPRRNGSIHGEITDVKRRRLSERNGYGDKKGSSSKEKTSSFEDELAEYASQLDQDEIKSSKDQQWQRPALPAINPEKDDIYFQQIDSEEFTEGSVPSIRLFGVTDNGNSILVHVVGFLPYFYVKAPVGFRPEMLERFTQDLDATCNGGVIDHCIIEMKENLYGFQGNEKSPFIKIFTTNPRILSRARNVFERGEFNFEELFPVGVGVTTFESNTQYLLRFMIDCDVVGMNWIHLPASKYQFRYQNRVSNCQIEAWINYKDLISLPAEGQWSKMAPLRIMSFDIECAGRKGVFPDPSIDPVIQIASIVTQYGDSTPFVRNVFCVDTCSQIVGTQVYEFQNQAEMLSSWSKFVRDVDPDVLIGYNICNFDIPYLLDRAKSLRIHNFPLLGRIHNFFSVAKETTFSSKAYGTRESKTTSIPGRLQLDMLQVMQRDFKLRSYSLNAVCSQFLGEQKEDVHYSIITDLQNGTADSRRRLAIYCLKDAYLPQRLMDKLMCFVNYTEMARVTGVPFNFLLARGQQIKVISQLFRKALQHDLVVPNIRVNGTDEQYEGATVIEPIKGYYDTPIATLDFSSLYPSIMQAHNLCYTTLLDSNTAELLKLKQDVDYSVTPNGDYFVKPHVRKGLLPIILADLLNARKKAKADLKKETDPFKKAVLDGRQLALKVSANSVYGFTGATNGRLPCLAISSSVTSYGRQMIEKTKDVVEKRYRIENGYSHDAVVIYGDTDSVMVKFGVKTLPEAMKLGEEAANYVSDQFPNPIKLEFEKVYFPYLLISKKRYAGLFWTRTDTYDKMDSKGIETVRRDNCPLVSYVIDTALRKMLIDQDVEGAQLFTKKVISDLLQNKIDMSQLVITKALSKTDYAAKMAHVELAERMRKRDAGSAPAIGDRVAYVIIKGAQGDQFYMRSEDPIYVLENNIPIDAKYYLENQLSKPLLRIFEPILGEKASSLLHGDHTRTISMAAPSVGGIMKFAVKVETCLGCKAPIKKGKTALCENCLNRSAELYQRQVAQVNDLEVRFARLWTQCQRCQGSMHQDVICTSRDCPIFYMRIAEHKKLQQSVDLLKRFDEMSW
notes: DNA polymerase delta catalytic subunit Pol3, S. pombe; prey plasmid named pACT-Pol3 in the results and pGAD2F-Pol3 in the methods; also called Gal4-Pol3; pACT-Pol3; source: yeast two-hybrid fusion, in S. cerevisiae CTY10-5d
